Reference: patent US20240425589A1 (Chugai, published 2024)
Positions count from the first letter of the chain named.

Tests used:
hCLDN9/BaF3 = target: T1, hCLDN9/BaF3; assay: flow cytometry on hCLDN9/BaF3 cells, detection with Alexa Fluor 488 anti-human IgG
T1 construct: also called human CLDN9 on Ba/F3 cells
T1 membrane protein: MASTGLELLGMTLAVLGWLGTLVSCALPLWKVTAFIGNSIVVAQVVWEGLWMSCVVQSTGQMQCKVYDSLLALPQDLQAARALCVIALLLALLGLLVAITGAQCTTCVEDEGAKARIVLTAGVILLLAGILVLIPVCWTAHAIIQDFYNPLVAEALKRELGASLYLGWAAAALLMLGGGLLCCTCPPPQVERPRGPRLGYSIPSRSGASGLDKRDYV

hCLDN3/BaF3 = target: T2, hCLDN3/BaF3; assay: flow cytometry on hCLDN3/BaF3 cells, detection with Alexa Fluor 488 anti-human IgG
T2 construct: also called human CLDN3 on Ba/F3 cells
T2 membrane protein: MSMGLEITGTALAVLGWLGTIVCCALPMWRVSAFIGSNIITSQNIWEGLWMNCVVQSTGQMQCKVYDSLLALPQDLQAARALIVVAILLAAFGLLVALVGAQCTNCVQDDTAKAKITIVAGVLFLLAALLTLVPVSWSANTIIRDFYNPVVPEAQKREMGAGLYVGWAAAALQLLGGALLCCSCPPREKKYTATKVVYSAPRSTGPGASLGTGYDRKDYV

hCLDN4/BaF3 = target: T3, hCLDN4/BaF3; assay: flow cytometry on hCLDN4/BaF3 cells, detection with Alexa Fluor 488 anti-human IgG
T3 construct: also called human CLDN4 on Ba/F3 cells
T3 membrane protein: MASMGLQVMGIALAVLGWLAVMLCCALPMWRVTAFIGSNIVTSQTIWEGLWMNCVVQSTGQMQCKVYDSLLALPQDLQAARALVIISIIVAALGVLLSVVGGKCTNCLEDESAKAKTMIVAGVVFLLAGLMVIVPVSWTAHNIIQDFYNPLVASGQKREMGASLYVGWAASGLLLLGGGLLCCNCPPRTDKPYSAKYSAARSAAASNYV

[1] = target: T4, human CLDN6 on Ba/F3 cells (hCLDN6/BaF) (human, UniProt P56747 1-220); assay: flow cytometry on hCLDN6/BaF3 cells, detection with Alexa Fluor 488 anti-human IgG
T4 construct: also called human Claudin-6
T4 chain: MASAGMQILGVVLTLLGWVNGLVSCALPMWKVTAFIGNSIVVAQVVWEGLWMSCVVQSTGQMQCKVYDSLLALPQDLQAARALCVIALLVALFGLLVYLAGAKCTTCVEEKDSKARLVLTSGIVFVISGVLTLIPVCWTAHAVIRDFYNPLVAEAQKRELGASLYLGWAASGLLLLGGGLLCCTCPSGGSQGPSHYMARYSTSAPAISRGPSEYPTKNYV

[2] = target: T5, Human CD137 extracellular domain (ECD) with hexahistidine (His-tag) and biotin acceptor peptide (BAP) (human); assay: SPR Biacore 8K, 37 C, pH 7.4, antibody captured by anti-human Fc on CM4 chip, CD137 injected at 500 and 2000 nM, 1:1 fit
T5 construct: Expressed in FreeStyle293F cells; also called recombinant human CD137; human CD137 ECD; not shown: C-terminal hexahistidine tag and biotin acceptor peptide (BAP)
T5 sequence (chain, as listed by the source): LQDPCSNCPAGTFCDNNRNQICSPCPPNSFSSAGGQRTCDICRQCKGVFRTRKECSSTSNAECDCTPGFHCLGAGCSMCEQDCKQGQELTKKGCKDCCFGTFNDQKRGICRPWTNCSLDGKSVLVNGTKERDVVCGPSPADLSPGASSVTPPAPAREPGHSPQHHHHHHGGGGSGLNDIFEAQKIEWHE

recombinant cyno CD137 = target: T6, recombinant cyno CD137 (cynomolgus monkey, UniProt A9YYE7 24-186); assay: as above
T6 sequence: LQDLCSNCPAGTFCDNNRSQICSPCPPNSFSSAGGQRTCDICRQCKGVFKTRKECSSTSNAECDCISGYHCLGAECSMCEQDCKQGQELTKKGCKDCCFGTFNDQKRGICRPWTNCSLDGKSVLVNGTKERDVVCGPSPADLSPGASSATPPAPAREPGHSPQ

[3] = target: cyno CLDN6 VLP (virus-like particle) (cynomolgus monkey)
recombinant cyno CD3eg = target: T7, recombinant cyno CD3eg (cynomolgus monkey); assay: SPR Biacore 8K, 25 C, pH 7.4, antibody captured by anti-human Fc on CM4 chip, CD3eg injected at 500 and 2000 nM, 1:1 fit
T7 construct: Construct not described; also called cyno CD3eg (gamma and epsilon subunits of CD3)
T7 sequence (Q95LI5 22-117, chain 1 of 2): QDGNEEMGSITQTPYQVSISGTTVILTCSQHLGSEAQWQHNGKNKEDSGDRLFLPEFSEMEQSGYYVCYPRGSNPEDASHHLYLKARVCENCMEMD
T7 sequence (Q95LI7 23-113, chain 2 of 2, further chain): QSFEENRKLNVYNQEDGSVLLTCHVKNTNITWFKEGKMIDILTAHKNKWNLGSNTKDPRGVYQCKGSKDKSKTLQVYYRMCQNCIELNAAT

human CD3eg linker = target: T8, human CD3eg linker (human); assay: as above
T8 construct: Single-chain construct: CD3 gamma and epsilon subunits joined by a 29-mer linker, Flag-tag at the C-terminal end of the gamma subunit; also called recombinant human CD3; gamma and epsilon subunits of the human CD3 complex linked by a 29-mer linker, Flag-tag
T8 chain: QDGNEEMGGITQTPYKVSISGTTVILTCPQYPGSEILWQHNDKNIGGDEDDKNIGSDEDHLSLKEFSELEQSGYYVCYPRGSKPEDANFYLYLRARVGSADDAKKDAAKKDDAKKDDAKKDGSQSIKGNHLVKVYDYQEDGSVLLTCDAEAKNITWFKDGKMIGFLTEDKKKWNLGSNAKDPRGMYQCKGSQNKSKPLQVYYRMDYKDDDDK

[4] = target: T9, human CLDN6 VLP (virus-like particle) (human, UniProt P56747 1-220); assay: SPR Biacore T200, 25 C, pH 7.4, CLDN6 VLP captured by anti-human CD81 on C1 chip, antibody injected at 50 and 200 nM, 1:1 fit
T9 chain: T4 chain

B1: CS2961 (bispecific antibody, V domains shown)
VH 1: QVQLVESGGGVVQPGGSLRLSCAASGFTFSSYTMSWVREAPGQGLEWMGTISSGGGRTYYPDSVKGRFTISRDNSKNTLYLQMNSLRDEDTAVYYCARGDYRYDGFAYWGEGTLVTVSS
VL 1: DIQMTQSPSSLSASVGDRVTITCRASYNIDSYLAWYQKKPGKAPELLIYYSTLLVDGVPDRFSGSRSGTDFTLTISSLQPEDFATYYCQHYYSIPYTFGQGTKVEIE
VH 2: QVQLVESGGGVVQPGGSLRLSCAASGFTFSNAWMHWVRKAPGKGLEWVAQIKDKSQNYATYVAESVKGRFTISRADSKNSIYLQMNSLKTEDTAVYYCRYVHYAAGYGVDIWGQGTTVTVSS
VL 2: DIVMTQSPLSLPVTPGEPASISCRSSQPLVHSNRNTYLHWYQEKPGQAPRLLIYKVSNRFSGVPDRFSGSGSGTDFTLKISRVEAEDVGVYYCGQGTQVPYTFGQGTKLEIK
notes: detected with anti-human IgG; also called anti-CLDN6/CD3 bispecific antibody (CS2961)
binding result (hCLDN9/BaF3): no binding (tested: 15 micro g/ml) | binding result (hCLDN3/BaF3): no binding (tested: 15 micro g/ml) | binding result (hCLDN4/BaF3): no binding (tested: 15 micro g/ml)

B2: 6PHU3/TR01 (bispecific antibody, V domains shown)
VH 1: EVQLQQSGPELVKPGASMKISCKASGYSFTGYTMNWVKQSHGKNLEWIGLINPYNGGTIYNQKFKGKATLTVDKSSSTAYMELLSLTSEDSAVYYCARDYGFVLDYWGQGTTLTVSS
VL 1: DIVLTQSPSIMSVSPGEKVTITCSASSSVSYMHWFQQKPGTSPKLCIYSTSNLASGVPARFSGRGSGTSYSLTISRVAAEDAATYYCQQRSNYPPWTFGGGTKLEIK
VH 2: B1 VH 2 with K39Q
VL 2: B1 VL 2 with E43Q
notes: also called anti-CLDN6/CD3 bispecific antibody (6PHU3/TR01)
binding result (hCLDN3/BaF3): no binding (tested: 15 micro g/ml) | binding result (hCLDN4/BaF3): no binding (tested: 15 micro g/ml)

B3: KLH/TR01 (bispecific antibody, V domains shown)
VH 1: QVQLQQSGPQLVRPGASVKISCKASGYSFTSYWMHWVNQRPGQGLEWIGMIDPSYSETRLNQKFKDKATLTVDKSSSTAYMQLSSPTSEDSAVYYCALYGNYFDYWGQGTTLTVSS
VL 1: DIQMTQSSSSFSVSLGDRVTITCKASEDIYNRLAWYQQKPGNAPRLLISGATSLETGVPSRFSGSGSGKDYTLSITSLQTEDVATYYCQQYWSTPYTFGGGTKLEVK
VH 2: B1 VH 2 with K39Q
VL 2: B1 VL 2 with E43Q
notes: also called negative control
binding result (hCLDN9/BaF3): no binding (tested: 15 micro g/ml) | binding result [1]: no binding (tested: 15 micro g/ml)

B4: PPU4135 (bispecific antibody, human IgG1, kappa, L234A L235A, N297A)
heavy 1: QVQLVESGGGVVQPGGSLRLSCAASGFTFSSYTMSWVRQAPGQGLEWMGTISSGGGRTYYPDSVKGRFTISRDNSKNTLYLQMNSLRDEDTAVYYCARGDYRYDGFAYWGEGTLVTVSSASTKGPSVFPLAPSSKSTSGGTAALGCLVEDYFPEPVTVSWNSGALTSGVHTFPAVLESSGLYSLSSVVTVPSSSLGTQTYICNVNHKPSNTKVDKRVEPKSCDKTHTCPPCPAPEAAGGPSVFLFPPKPKDTLMISRTPEVTCVVVDVSHEDPEVKFNWYVDGVEVHNAKTKPREEQYASTYRVVSVLTVLHQDWLNGKEYKCKVSNKALPAPIEKTISKAKGQPREPQVYTLPPSREEMTKNQVSLTCLVKGFYPSDIAVEWESNGQPENNYKTTPPVLDSDGSFFLYSKLTVDKSRWQQGNVFSCSVMHEALHNHYTQESLSLSP
light 1: DIQMTQSPSSLSASVGDRVTITCRASYNIDSYLAWYQQKPGKAPELLIYYSTLLVDGVPDRFSGSRSGTDFTLTISSLQPEDFATYYCQHYYSIPYTFGQGTKVEIERTVAAPSVFIFPPSDEQLKSGTAKVVCLLNNFYPREAKVQWKVDNALQSGNSKESVTEQDSKDSTYSLSSTLTLSKADYEKHKVYACEVTHQGLSSPVTKSFNRGEC
heavy 2: QVQLVESGGGLVQPGRSLRLSCAASGFKFSNVWFHWVRQAPGKGLEWVAQIKDYYNAYAAYYAPSVKGRFTISRDDSKNSIYLQMNSLKTEDTAVYYCHYVHYASASTLLPAEGVDAWGQGTTVTVSSASTKGPSVFPLAPSSKSTSGGTAALGCLVKDYFPEPVTVSWNSGALTSGVHTFPAVLKSSGLYSLSSVVTVPSSSLGTQTYICNVNHKPSNTKVDKRVEPKSCDKTHTCPPCPAPEAAGGPSVFLFPPKPKDTLMISRTPEVTCVVVDVSHEDPEVKFNWYVDGVEVHNAKTKPREEQYASTYRVVSVLTVLHQDWLNGKEYKCKVSNKALPAPIEKTISKAKGQPREPQVYTLPPSRKEMTKNQVSLTCLVKGFYPSDIAVEWESNGQPENNYKTTPPVLDSDGSFFLYSKLTVDKSRWQQGNVFSCSVMHEALHNHYTQKSLSLSP
light 2: DIVMTQSPLSLPVTPGEPASISCQPSQEVVHMNRNTYLHWYQQKPGQAPRLLIYKVSNRFPGVPDRFSGSGSGTDFTLKISRVEAEDVGVYYCAQGTSHPFTFGQGTKLEIKRTVAAPSVFIFPPSDEQLKSGTAEVVCLLNNFYPREAKVQWKVDNALQSGNSEESVTEQDSKDSTYSLSSTLTLSKADYEKHKVYACEVTHQGLSSPVTKSFNRGEC
notes: also called CS4135; Ab03
Kd [2]: 46.8 nM | koff [2]: 0.000591 s⁻¹ | kon [2]: 12600 M⁻¹ s⁻¹ | Kd (recombinant cyno CD137): 174 nM | koff (recombinant cyno CD137): 0.00146 s⁻¹ | kon (recombinant cyno CD137): 8350 M⁻¹ s⁻¹ | Kd [3]: 3.77 nM | koff [3]: 0.000821 s⁻¹ | kon [3]: 218000 M⁻¹ s⁻¹ | Kd (recombinant cyno CD3eg): 329 nM | koff (recombinant cyno CD3eg): 0.0332 s⁻¹ | kon (recombinant cyno CD3eg): 101000 M⁻¹ s⁻¹ | Kd (human CD3eg linker): 341 nM | koff (human CD3eg linker): 0.0266 s⁻¹ | kon (human CD3eg linker): 78000 M⁻¹ s⁻¹ | Kd [4]: 3.65 nM | koff [4]: 0.000794 s⁻¹ | kon [4]: 217000 M⁻¹ s⁻¹
